B1: des(1)-Ac-[D-Tyr2,Hyp3,Thr5,Phe(2Me)6,Arg(Me)9,Trp10]MS10 (peptide)
peptide: Ac-[dY][Hyp]NT[Phe(2-Me)]GL[Arg(Me)]W-NH2
B2: des(1)-Ac-[D-Tyr2,Glu3,Thr5,Cha6,Gly7Ψ((E)CH═CH)Leu8,Arg(Me)9,Trp10]MS10 (peptide)
peptide: Ac-[dY]ENT[Cha]GL[Arg(Me)]W-NH2
modifications: also: Gly7-Leu8 amide bond replaced by (E)-CH═CH-
B3: des(1)-Ac-[D-Tyr2,Aad3,Thr5,Cha6,Ala(cPr)8,Arg(Me)9,Trp10]MS10 (peptide)
peptide: Ac-[dY][Aad]NT[Cha]G[Ala(cPr)][Arg(Me)]W-NH2
SMILES: CNC(=N)NCCC[C@H](NC(=O)[C@H](CC1CC1)NC(=O)CNC(=O)[C@H](CC1CCCCC1)NC(=O)[C@@H](NC(=O)[C@H](CC(N)=O)NC(=O)[C@H](CCCC(=O)O)NC(=O)[C@@H](Cc1ccc(O)cc1)NC(C)=O)[C@@H](C)O)C(=O)N[C@@H](Cc1c[nH]c2ccccc12)C(N)=O
B4: des(1)-Ac-[D-Tyr2,Hyp3,Thr5,Ala(cPr)8,Arg(Me)9,Trp10]MS10 (peptide)
peptide: Ac-[dY][Hyp]NTFG[Ala(cPr)][Arg(Me)]W-NH2
B5: des(1)-Ac-[D-Tyr2,Hyp3,Alb4,Thr5,Arg(Me)9,Trp10]MS10 (peptide)
peptide: Ac-[dY][Hyp][Dap(CONH2)]TFGL[Arg(Me)]W-NH2
SMILES: CNC(=N)NCCC[C@H](NC(=O)[C@H](CC(C)C)NC(=O)CNC(=O)[C@H](Cc1ccccc1)NC(=O)[C@@H](NC(=O)[C@H](CNC(N)=O)NC(=O)[C@@H]1C[C@@H](O)CN1C(=O)[C@@H](Cc1ccc(O)cc1)NC(C)=O)[C@@H](C)O)C(=O)N[C@@H](Cc1c[nH]c2ccccc12)C(N)=O
B6: des(1)-Ac-[D-Tyr2,Hyp3,Thr5,Ser7,Arg(Me)9,Trp10]MS10 (peptide)
peptide: Ac-[dY][Hyp]NTFSL[Arg(Me)]W-NH2
SMILES: CNC(=N)NCCC[C@H](NC(=O)[C@H](CC(C)C)NC(=O)[C@H](CO)NC(=O)[C@H](Cc1ccccc1)NC(=O)[C@@H](NC(=O)[C@H](CC(N)=O)NC(=O)[C@@H]1C[C@@H](O)CN1C(=O)[C@@H](Cc1ccc(O)cc1)NC(C)=O)[C@@H](C)O)C(=O)N[C@@H](Cc1c[nH]c2ccccc12)C(N)=O
B7: des(1)-Ac-[D-Tyr2,Glu3,Alb4,Thr5,Cha6,Gly7Ψ((E)CH═CH)Leu8,Arg(Me)9,Trp10]MS10 (peptide)
peptide: Ac-[dY]E[Dap(CONH2)]T[Cha]GL[Arg(Me)]W-NH2
modifications: also: Gly7-Leu8 amide bond replaced by (E)-CH═CH-
B8: des(1)-Ac-[D-Tyr2,Hyp3,Thr5,Ala7,Arg(Me)9,Trp10]MS10 (peptide)
peptide: Ac-[dY][Hyp]NTFAL[Arg(Me)]W-NH2
B9: des(1)-Ac-[D-Tyr2,Hyp3,Thr5,Cha6,Gly7Ψ((E)CH═CH)Leu8,Arg(Me)9,Trp10]MS10 (peptide)
peptide: Ac-[dY][Hyp]NT[Cha]GL[Arg(Me)]W-NH2
modifications: also: Gly6-Leu7 amide replaced by (E)CH=CH
B10: des(1)-Ac-[D-Tyr2,Hyp3,Glu4,Thr5,Cha6,Gly7Ψ((E)CH═CH)Leu8,Arg(Me)9,Trp10]MS10 (peptide)
peptide: Ac-[dY][Hyp]ET[Cha]GL[Arg(Me)]W-NH2
modifications: also: Gly7Ψ((E)CH═CH)Leu8: amide between Gly and Leu replaced by (E) alkene
B11: des(1)-Ac-[D-Tyr2,Lys3,Thr5,Cha6,Ala(cPr)8,Arg(Me)9,Trp10]MS10 (peptide)
peptide: Ac-[dY]KNT[Cha]G[Ala(cPr)][Arg(Me)]W-NH2
modifications: not fully specified; printed as Ac-D-Tyr-Lys-Asn-Thr-Cha-Gly-Ala(cPr)-Arg(Me)-Trp-NH2
B12: des(1)-Ac-[D-Tyr2,Asp3,Thr5,Cha6,Ala(cPr)8,Arg(Me)9,Trp10]MS10 (peptide)
peptide: Ac-[dY]DNT[Cha]G[Ala(cPr)][Arg(Me)]W-NH2
SMILES: CNC(=N)NCCC[C@H](NC(=O)[C@H](CC1CC1)NC(=O)CNC(=O)[C@H](CC1CCCCC1)NC(=O)[C@@H](NC(=O)[C@H](CC(N)=O)NC(=O)[C@H](CC(=O)O)NC(=O)[C@@H](Cc1ccc(O)cc1)NC(C)=O)[C@@H](C)O)C(=O)N[C@@H](Cc1c[nH]c2ccccc12)C(N)=O
B13: des(1)-Ac-[D-Tyr2,Aib3,Thr5,Cha6,Ala(cPr)8,Arg(Me)9,Trp10]MS10 (peptide)
peptide: Ac-[dY][Aib]NT[Cha]G[Ala(cPr)][Arg(Me)]W-NH2
SMILES: CNC(=N)NCCC[C@H](NC(=O)[C@H](CC1CC1)NC(=O)CNC(=O)[C@H](CC1CCCCC1)NC(=O)[C@@H](NC(=O)[C@H](CC(N)=O)NC(=O)C(C)(C)NC(=O)[C@@H](Cc1ccc(O)cc1)NC(C)=O)[C@@H](C)O)C(=O)N[C@@H](Cc1c[nH]c2ccccc12)C(N)=O
B14: des(1)-Ac-[D-Tyr2,Hyp3,Cit4,Thr5,Cha6,Gly7Ψ((E)CH═CH)Leu8,Arg(Me)9,Trp10]MS10 (peptide)
peptide: Ac-[dY][Hyp][Cit]T[Cha]GL[Arg(Me)]W-NH2
modifications: also: Gly7Ψ((E)CH═CH)Leu8: amide between Gly and Leu replaced by (E) alkene
B15: des(1)-Ac-[D-Tyr2,Hyp3,Thr5,αMePhe6,Arg(Me)9,Trp10]MS10 (peptide)
peptide: Ac-[dY][Hyp]NT[αMeF]GL[Arg(Me)]W-NH2
SMILES: CNC(=N)NCCC[C@H](NC(=O)[C@H](CC(C)C)NC(=O)CNC(=O)[C@](C)(Cc1ccccc1)NC(=O)[C@@H](NC(=O)[C@H](CC(N)=O)NC(=O)[C@@H]1C[C@@H](O)CN1C(=O)[C@@H](Cc1ccc(O)cc1)NC(C)=O)[C@@H](C)O)C(=O)N[C@@H](Cc1c[nH]c2ccccc12)C(N)=O
B16: des(1)-Ac-[D-Tyr2,Hyp3,Gln4,Thr5,Cha6,Gly7Ψ((E)CH═CH)Leu8,Arg(Me)9,Trp10]MS10 (peptide)
peptide: Ac-[dY][Hyp]QT[Cha]GL[Arg(Me)]W-NH2
modifications: also: Gly7Ψ((E)CH═CH)Leu8: amide between Gly and Leu replaced by (E) alkene
B17: des(1)-Ac-[D-Tyr2,Glu3,Thr5,Gly7Ψ((E)CH═CH)Leu8,Arg(Me)9,Trp10]MS10 (peptide)
peptide: Ac-[dY]ENTFGL[Arg(Me)]W-NH2
modifications: also: Gly7-Leu8 amide bond replaced by (E)-CH═CH-
B18: des(1)-Ac-[D-Tyr2,Glu3,Alb4,Thr5,Gly7Ψ((E)CH═CH)Leu8,Arg(Me)9,Trp10]MS10 (peptide)
peptide: Ac-[dY]E[Dap(CONH2)]TFGL[Arg(Me)]W-NH2
modifications: also: Gly7-Leu8 amide bond replaced by (E)-CH═CH-
B19: des(1)-Ac-[D-Tyr2,Hyp3,Alb4,Thr5,Cha6,Gly7Ψ((E)CH═CH)Leu8,Arg(Me)9,Trp10]MS10 (peptide)
peptide: Ac-[dY][Hyp][Dap(CONH2)]T[Cha]GL[Arg(Me)]W-NH2
modifications: also: Gly7-Leu8 amide bond replaced by (E)-CH═CH-
B20: des(1)-Ac-[D-Tyr2,Hyp3,Thr5,Phe6Ψ((R)CHOH-(E)CH=)Gly7,Arg(Me)9,Trp10]MS10 (peptide)
peptide: Ac-[dY][Hyp]NTFGL[Arg(Me)]W-NH2
modifications: also: Phe5-Gly6 amide replaced by (R)CHOH-(E)CH=
B21: des(1)-Ac-[D-Tyr2,Glu3,Thr5,Cha6,Ala(cPr)8,Arg(Me)9,Trp10]MS10 (peptide)
peptide: Ac-[dY]ENT[Cha]G[Ala(cPr)][Arg(Me)]W-NH2
SMILES: CNC(=N)NCCC[C@H](NC(=O)[C@H](CC1CC1)NC(=O)CNC(=O)[C@H](CC1CCCCC1)NC(=O)[C@@H](NC(=O)[C@H](CC(N)=O)NC(=O)[C@H](CCC(=O)O)NC(=O)[C@@H](Cc1ccc(O)cc1)NC(C)=O)[C@@H](C)O)C(=O)N[C@@H](Cc1c[nH]c2ccccc12)C(N)=O
B22: des(1)-Ac-[D-Tyr2,Hyp3,Thr5,Phe(3Me)6,Arg(Me)9,Trp10]MS10 (peptide)
peptide: Ac-[dY][Hyp]NT[Phe(3-Me)]GL[Arg(Me)]W-NH2
B23: des(1)-Ac-[D-Tyr2,Hyp3,Thr5,Gly7Ψ((E)CH═CH)Leu8,Arg(Me)9,Trp10]MS10 (peptide)
peptide: Ac-[dY][Hyp]NTFGL[Arg(Me)]W-NH2
modifications: also: Gly6-Leu7 amide replaced by (E)CH=CH
B24: des(1)-Ac-[D-Tyr2,Hyp3,Alb4,Thr5,Gly7Ψ((E)CH═CH)Leu8,Arg(Me)9,Trp10]MS10 (peptide)
peptide: Ac-[dY][Hyp][Dap(CONH2)]TFGL[Arg(Me)]W-NH2
modifications: also: Gly7Ψ((E)CH═CH)Leu8: amide between Gly and Leu replaced by (E) alkene
B25: des(1)-Ac-[D-Tyr2,Hyp3,Thr5,Phe6Ψ((R)CHOH-CH2)Gly7,Arg(Me)9,Trp10]MS10 (peptide)
peptide: Ac-[dY][Hyp]NTFGL[Arg(Me)]W-NH2
modifications: also: Phe5-Gly6 amide replaced by (R)CHOH-CH2
B26: des(1)-Ac-[D-Tyr2,Hyp3,Thr5,Phe(4Me)6,Arg(Me)9,Trp10]MS10 (peptide)
peptide: Ac-[dY][Hyp]NT[Phe(4-Me)]GL[Arg(Me)]W-NH2
B27: des(1)-Ac-[D-Tyr2,Hyp3,Thr5,Gly7Ψ(CH2CH2)Leu8,Arg(Me)9,Trp10]MS10 (peptide)
peptide: Ac-[dY][Hyp]NTFGL[Arg(Me)]W-NH2
modifications: also: Gly6-Leu7 amide replaced by CH2CH2
B28: des(1)-Ac-[D-Tyr2,Hyp3,Thr5,Cha6,Ala(cPr)8,Arg(Me)9,Trp10]MS10 (peptide)
peptide: Ac-[dY][Hyp]NT[Cha]G[Ala(cPr)][Arg(Me)]W-NH2

[ ]: non-standard residue; d: D form. Phe(3-Me) = Cc1cccc(C[C@H](N)C(=O)O)c1; Phe(4-Me) = Cc1ccc(C[C@H](N)C(=O)O)cc1; Phe(2-Me) = Cc1ccccc1C[C@H](N)C(=O)O; Arg(Me) = CNC(=N)NCCC[C@H](N)C(=O)O; Dap(CONH2) = NC(=O)NC[C@H](N)C(=O)O; Ala(cPr) = N[C@@H](CC1CC1)C(=O)O; Hyp = O=C(O)[C@@H]1C[C@@H](O)CN1; αMeF = C[C@](N)(Cc1ccccc1)C(=O)O; Aad = N[C@@H](CCCC(=O)O)C(=O)O; Cha = N[C@@H](CC1CCCCC1)C(=O)O; Cit = NC(=O)NCCC[C@H](N)C(=O)O; Aib = CC(C)(N)C(=O)O

The target in this experiment is human OT7T175 (metastin receptor) (human) (UniProt Q969F8). The experiment can be described thus: cell-based or functional assay.
Sequence of UniProt Q969F8 (Q969F8 whole entry L364H): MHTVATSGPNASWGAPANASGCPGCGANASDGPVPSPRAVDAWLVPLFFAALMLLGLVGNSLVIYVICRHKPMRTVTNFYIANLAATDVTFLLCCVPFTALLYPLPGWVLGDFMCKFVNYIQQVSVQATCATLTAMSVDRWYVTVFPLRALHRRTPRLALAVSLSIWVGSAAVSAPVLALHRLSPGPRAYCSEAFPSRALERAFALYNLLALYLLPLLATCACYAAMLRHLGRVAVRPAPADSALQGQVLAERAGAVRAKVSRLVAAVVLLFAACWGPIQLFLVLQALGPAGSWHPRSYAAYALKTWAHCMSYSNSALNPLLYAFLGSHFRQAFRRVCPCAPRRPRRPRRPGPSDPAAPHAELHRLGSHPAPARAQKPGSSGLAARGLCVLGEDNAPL
Take B1: the Specific Activity (EC50 of test compound based on EC50 of Metastin (45-54); intracellular calcium, FLIPR) (ratio to EC50 of Metastin (45-54)) was determined as 0.7. In the case of B2 it was 0.5.

For the molecule B3, the Specific Activity (EC50 of test compound based on EC50 of Metastin (45-54); intracellular calcium, FLIPR) (ratio to EC50 of Metastin (45-54)) amounted to 1.1. In the case of B4 it was 0.8. Next, B5: 0.5; B6: 0.6; B7: 0.5. For the molecule B8, the Specific Activity (EC50 of test compound based on EC50 of Metastin (45-54); intracellular calcium, FLIPR) (ratio to EC50 of Metastin (45-54)) was found to be 0.5. On to B9, for which the Specific Activity (EC50 of test compound based on EC50 of Metastin (45-54); intracellular calcium, FLIPR) (ratio to EC50 of Metastin (45-54)) came out at 0.6.

As to B10, the Specific Activity (EC50 of test compound based on EC50 of Metastin (45-54); intracellular calcium, FLIPR) (ratio to EC50 of Metastin (45-54)) worked out at 4.6. In the case of B11 it was 0.7; in that of B12, 2.5; in that of B13, 0.6.

On to B14, for which the Specific Activity (EC50 of test compound based on EC50 of Metastin (45-54); intracellular calcium, FLIPR) (ratio to EC50 of Metastin (45-54)) was 0.9.

On to B15, for which the Specific Activity (EC50 of test compound based on EC50 of Metastin (45-54); intracellular calcium, FLIPR) (ratio to EC50 of Metastin (45-54)) is 3.8. With B16, the Specific Activity (EC50 of test compound based on EC50 of Metastin (45-54); intracellular calcium, FLIPR) (ratio to EC50 of Metastin (45-54)) amounted to 1.4. With B17, the Specific Activity (EC50 of test compound based on EC50 of Metastin (45-54); intracellular calcium, FLIPR) (ratio to EC50 of Metastin (45-54)) was determined as 0.6. On to B18, for which the Specific Activity (EC50 of test compound based on EC50 of Metastin (45-54); intracellular calcium, FLIPR) (ratio to EC50 of Metastin (45-54)) was found to be 0.5. For the molecule B19, the Specific Activity (EC50 of test compound based on EC50 of Metastin (45-54); intracellular calcium, FLIPR) (ratio to EC50 of Metastin (45-54)) is 0.4. Next, B20: 1.4; B21: 0.4. Next, B22: 0.8; B23: 0.6; B24: 0.6.

Regarding B25, the Specific Activity (EC50 of test compound based on EC50 of Metastin (45-54); intracellular calcium, FLIPR) (ratio to EC50 of Metastin (45-54)) is 0.8.

B26: the Specific Activity (EC50 of test compound based on EC50 of Metastin (45-54); intracellular calcium, FLIPR) (ratio to EC50 of Metastin (45-54)) was 0.9.

For the molecule B27, the Specific Activity (EC50 of test compound based on EC50 of Metastin (45-54); intracellular calcium, FLIPR) (ratio to EC50 of Metastin (45-54)) was determined as 0.8.

Regarding B28, the Specific Activity (EC50 of test compound based on EC50 of Metastin (45-54); intracellular calcium, FLIPR) (ratio to EC50 of Metastin (45-54)) came to 0.5.

The record behind these values is patent publication US20110059888A1.
